Source: article PMC8983682 (Nature Communications, 2022)

Biological target: full-length N1-CA09-WT, membrane-anchored, C-terminal myc tag (Influenza A virus A/California/07/2009 …, UniProt C7FH46, strain)
Assay: flow cytometry on cells
Details: one partner purified

B1: CD6 IgG (antibody, V domains shown)
VH: QVKLQESGGGLVQPKGSLKLSCAASGFTFNTYAMNWVRQAPGKGLEWVARIRSKSNNYATFYADSVKDRFTISRDDSQSMLYLQMHNLKTDDTAMYYCVRPSIYYYASGYLDVWGAGTTVTVSS
VL: QIVLSQSPAILSASPGEKVTMTCRTSSSVSYMHWYQQKPGSSPKPWIYATSNLASGVPFRFSGSGSGTSYSLTISRVEAEDAATYYCQQWNSNPPTFGGGTKLEIK
notes: copies: 2 + 2
Question: Does B1 bind?
Answer: Result: binds
